Source: article PMC2992793 (Structure (London, England : 1993), 2010)
Where a chain is given by its changes, count along the chain named. Names and notes keep the numbering of the source. One block for each binder: values may come before it.

What was measured:
[1] = molecular target: T1, His-tagged μ2C (μ2 170–435), wild type (rat, UniProt P84092 170-435); assay: pull-down
T1 sequence (looked up): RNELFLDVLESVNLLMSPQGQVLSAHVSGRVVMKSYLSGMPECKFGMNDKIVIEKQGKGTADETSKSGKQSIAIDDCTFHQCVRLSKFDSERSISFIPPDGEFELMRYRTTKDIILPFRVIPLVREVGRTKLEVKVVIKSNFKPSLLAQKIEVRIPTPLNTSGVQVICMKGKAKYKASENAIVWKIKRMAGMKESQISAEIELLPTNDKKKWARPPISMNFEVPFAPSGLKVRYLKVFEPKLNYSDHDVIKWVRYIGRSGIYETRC

GST-μ2C E211A = molecular target: T2, GST-μ2C E211A (rat, UniProt P84092 170-435, Glu211 to alanine); assay: pull-down
T2 sequence (looked up): T1 sequence (looked up) with E42A

GST-μ2C K405A = molecular target: T3, GST-μ2C K405A (rat, UniProt P84092 170-435, Lys405 to alanine); assay: pull-down
T3 sequence (looked up): T1 sequence (looked up) with K236A

[2] = molecular target: T4, GST-μ2C wild type (μ2 170–435) (rat, UniProt P84092 170-435); assay: pull-down
T4 sequence (looked up): T1 sequence (looked up)

GST-μ2C K213A = molecular target: T5, GST-μ2C K213A (rat, UniProt P84092 170-435, Lys213 to alanine); assay: pull-down
T5 sequence (looked up): T1 sequence (looked up) with K44A

GST-μ2C F407A = molecular target: T6, GST-μ2C F407A (rat, UniProt P84092 170-435, Phe407 to alanine); assay: pull-down
T6 sequence (looked up): T1 sequence (looked up) with F238A

[3] = molecular target: T7, Dvl2 Lys446Met (construct not stated) (murine, UniProt Q60838 1-736, Lys446Met)
T7 sequence (looked up): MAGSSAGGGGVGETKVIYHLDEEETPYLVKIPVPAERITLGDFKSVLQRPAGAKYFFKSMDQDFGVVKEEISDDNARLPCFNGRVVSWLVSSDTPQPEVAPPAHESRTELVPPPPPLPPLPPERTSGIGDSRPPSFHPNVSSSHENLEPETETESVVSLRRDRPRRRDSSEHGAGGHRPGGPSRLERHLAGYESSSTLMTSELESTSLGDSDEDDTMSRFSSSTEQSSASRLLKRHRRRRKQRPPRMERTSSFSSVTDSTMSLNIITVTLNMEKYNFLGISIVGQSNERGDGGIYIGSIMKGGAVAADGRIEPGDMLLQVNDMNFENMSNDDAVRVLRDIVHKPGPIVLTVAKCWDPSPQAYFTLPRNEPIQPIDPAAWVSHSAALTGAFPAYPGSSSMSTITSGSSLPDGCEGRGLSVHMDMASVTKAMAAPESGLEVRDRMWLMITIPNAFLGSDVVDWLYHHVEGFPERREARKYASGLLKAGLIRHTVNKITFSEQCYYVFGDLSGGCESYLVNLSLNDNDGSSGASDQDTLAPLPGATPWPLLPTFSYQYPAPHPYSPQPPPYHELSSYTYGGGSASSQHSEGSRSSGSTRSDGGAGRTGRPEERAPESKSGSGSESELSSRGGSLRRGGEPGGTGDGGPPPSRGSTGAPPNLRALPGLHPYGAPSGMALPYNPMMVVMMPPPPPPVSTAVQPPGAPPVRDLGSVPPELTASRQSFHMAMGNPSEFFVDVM

[4] = molecular target: T8, Dvl2 Lys446Ala (construct not stated) (murine, UniProt Q60838 1-736, Lys446Ala)
T8 sequence (looked up): T7 sequence (looked up) with M446A

- binding result [1]: binds
B4: GST-Dvl2 417–588 R489A (domain or fragment, murine, UniProt Q60838 417-588, looked up)
chain: LSVHMDMASVTKAMAAPESGLEVRDRMWLKITIPNAFLGSDVVDWLYHHVEGFPERREARKYASGLLKAGLIAHTVNKITFSEQCYYVFGDLSGGCESYLVNLSLNDNDGSSGASDQDTLAPLPGATPWPLLPTFSYQYPAPHPYSPQPPPYHELSSYTYGGGSASSQHSEG

- binding result (GST-μ2C E211A): binds
- binding result (GST-μ2C K405A): binds
- binding result [2]: binds
- binding result (GST-μ2C K213A): binds
- binding result (GST-μ2C F407A): binds
B5: His-tagged Dvl2 407–588 (domain or fragment, murine, UniProt Q60838 407-588, looked up)
chain: SLPDGCEGRGLSVHMDMASVTKAMAAPESGLEVRDRMWLKITIPNAFLGSDVVDWLYHHVEGFPERREARKYASGLLKAGLIRHTVNKITFSEQCYYVFGDLSGGCESYLVNLSLNDNDGSSGASDQDTLAPLPGATPWPLLPTFSYQYPAPHPYSPQPPPYHELSSYTYGGGSASSQHSEG

- fold decrease of μ2 affinity against wild-type Dvl2 [3]: ~2 fold
- fold decrease of μ2 affinity against wild-type Dvl2 [4]: ~2 fold
B6: μ2 (construct of the experiments not shown is not stated) (natural protein, rat, UniProt P84092 1-435, looked up)
chain: MIGGLFIYNHKGEVLISRVYRDDIGRNAVDAFRVNVIHARQQVRSPVTNIARTSFFHVKRSNIWLAAVTKQNVNAAMVFEFLYKMCDVMAAYFGKISEENIKNNFVLIYELLDEILDFGYPQNSETGALKTFITQQGIKSQHQTKEEQSQITSQVTGQIGWRREGIKYRRNELFLDVLESVNLLMSPQGQVLSAHVSGRVVMKSYLSGMPECKFGMNDKIVIEKQGKGTADETSKSGKQSIAIDDCTFHQCVRLSKFDSERSISFIPPDGEFELMRYRTTKDIILPFRVIPLVREVGRTKLEVKVVIKSNFKPSLLAQKIEVRIPTPLNTSGVQVICMKGKAKYKASENAIVWKIKRMAGMKESQISAEIELLPTNDKKKWARPPISMNFEVPFAPSGLKVRYLKVFEPKLNYSDHDVIKWVRYIGRSGIYETRC

Continued, binder first:

B1: GST-Dvl2 417–588, wild type (domain or fragment, murine, UniProt Q60838 417-588, looked up)
chain: B4 chain with A73R
- binding result [1]: binds

B2: GST-Dvl2 417–588 D441K (domain or fragment, murine, UniProt Q60838 417-588, looked up)
chain: B4 chain with D25K, A73R
- binding result [1]: binds

B3: GST-Dvl2 417–588 N451A (domain or fragment, murine, UniProt Q60838 417-588, looked up)
chain: B4 chain with N35A, A73R
- binding result [1]: binds
